First the molecules themselves.
B1: CK1-10 (antibody, V domains shown)
VH: AVTLDESGGGLQTPGRALSLVCKASGFTFSDYGMGWMRQAPGKGLEWVGAISNRGSHTYYGAAVKGRATISRDNGQSTVRLQLNNLRAEDTGTYYCAKDAGTCISSYGFSCVSAASIDAWGHGTEVIVSS
VL: ALTQPSSVSANLGGTVKITCSGGSGSYGGSYYYGWYQQKAPGSAPVTLIYDNTNRPSNIPSRFSGSKSGSTATLTITGVQADDEAVYFCGSIDSISDADIFGAGTTLTVLG
B2: PK1-16 (antibody, V domains shown)
VH: AVTLDESGGGLQTPGGGLSLVCKASGFTFRSYAMYWVRQAPGKGLEWLAGISSSGRYTGYAPAVKGRATISRDNGQSTVRLQLSNLRAEDAGTYYCAKDVYDSWTYANRIDAWGHGTEVIVSS
VL: ALTQPSSVSANPGETVKITCSGGGRRGYYGWYQQKSPGSAPVTVIYNNDERPSNIPSRFSGFKSGSTATLTITGVQAEDEAVYYCGSGDTTTDSGIFGAGTTLTVLG
B3: CK1-14 (antibody, V domains shown)
VH: AVTLDESGGGLQTPGGALSLVCKASGFTFTRYAIQWVRQAPGKGLEWVGVINSGGRTLYAPAVKGRATISRDNGQSTVRLQLNNLRAEDTAIYYCVRGGYAYGIETWGHGTEVIVSS
VL: ALTQPSSVSANPGETVKITCSGSRYDYGWYQQKSPGSAPVTLIYYNNKRPSDIPSRFSGSKSGSTHTLTITGVQADDEAVYFCGSTDTSNDIFGAGTTLTVLG

For the experiment, the target named is human PAD2 protein (UniProt Q9Y2J8 1-665). The experiment is described as follows: SPR. (In general: Surface plasmon resonance follows binding to a sensor surface in real time, without labels.)
Sequence of human PAD2 protein (Q9Y2J8 whole entry): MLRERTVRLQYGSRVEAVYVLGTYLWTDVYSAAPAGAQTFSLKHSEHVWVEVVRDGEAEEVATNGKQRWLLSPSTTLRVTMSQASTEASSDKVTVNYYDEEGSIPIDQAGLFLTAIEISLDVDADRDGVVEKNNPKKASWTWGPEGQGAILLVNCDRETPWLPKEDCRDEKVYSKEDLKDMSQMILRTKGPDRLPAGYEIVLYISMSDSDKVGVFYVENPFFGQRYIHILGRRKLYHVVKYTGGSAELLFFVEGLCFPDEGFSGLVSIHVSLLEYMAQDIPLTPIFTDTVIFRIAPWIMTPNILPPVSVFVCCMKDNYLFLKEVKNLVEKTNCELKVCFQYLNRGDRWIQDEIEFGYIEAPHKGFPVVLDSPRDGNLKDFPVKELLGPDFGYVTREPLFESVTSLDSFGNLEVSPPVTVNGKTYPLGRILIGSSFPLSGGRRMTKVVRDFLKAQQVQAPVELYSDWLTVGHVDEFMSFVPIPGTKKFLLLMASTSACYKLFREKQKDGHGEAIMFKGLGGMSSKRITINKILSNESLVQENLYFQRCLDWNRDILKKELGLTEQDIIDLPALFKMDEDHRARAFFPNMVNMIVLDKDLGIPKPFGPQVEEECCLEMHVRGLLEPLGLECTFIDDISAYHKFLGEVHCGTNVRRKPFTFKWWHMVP
One may read the Kd as the constant that tells how readily two partners part at equilibrium. A higher Kd goes with a looser complex. Take B1: the dissociation constant Kd was found to be 0.9 nM.
In the case of B2 it was 1.68 nM; in that of B3, 1.37 nM.
